The results in this text go back to US20230103407A1.

This assay deals with mannose receptor (UniProt Q61830). Kind of assay: cell-based or functional assay.
Sequence of mannose receptor (Q61830 20-1456 limits assumed): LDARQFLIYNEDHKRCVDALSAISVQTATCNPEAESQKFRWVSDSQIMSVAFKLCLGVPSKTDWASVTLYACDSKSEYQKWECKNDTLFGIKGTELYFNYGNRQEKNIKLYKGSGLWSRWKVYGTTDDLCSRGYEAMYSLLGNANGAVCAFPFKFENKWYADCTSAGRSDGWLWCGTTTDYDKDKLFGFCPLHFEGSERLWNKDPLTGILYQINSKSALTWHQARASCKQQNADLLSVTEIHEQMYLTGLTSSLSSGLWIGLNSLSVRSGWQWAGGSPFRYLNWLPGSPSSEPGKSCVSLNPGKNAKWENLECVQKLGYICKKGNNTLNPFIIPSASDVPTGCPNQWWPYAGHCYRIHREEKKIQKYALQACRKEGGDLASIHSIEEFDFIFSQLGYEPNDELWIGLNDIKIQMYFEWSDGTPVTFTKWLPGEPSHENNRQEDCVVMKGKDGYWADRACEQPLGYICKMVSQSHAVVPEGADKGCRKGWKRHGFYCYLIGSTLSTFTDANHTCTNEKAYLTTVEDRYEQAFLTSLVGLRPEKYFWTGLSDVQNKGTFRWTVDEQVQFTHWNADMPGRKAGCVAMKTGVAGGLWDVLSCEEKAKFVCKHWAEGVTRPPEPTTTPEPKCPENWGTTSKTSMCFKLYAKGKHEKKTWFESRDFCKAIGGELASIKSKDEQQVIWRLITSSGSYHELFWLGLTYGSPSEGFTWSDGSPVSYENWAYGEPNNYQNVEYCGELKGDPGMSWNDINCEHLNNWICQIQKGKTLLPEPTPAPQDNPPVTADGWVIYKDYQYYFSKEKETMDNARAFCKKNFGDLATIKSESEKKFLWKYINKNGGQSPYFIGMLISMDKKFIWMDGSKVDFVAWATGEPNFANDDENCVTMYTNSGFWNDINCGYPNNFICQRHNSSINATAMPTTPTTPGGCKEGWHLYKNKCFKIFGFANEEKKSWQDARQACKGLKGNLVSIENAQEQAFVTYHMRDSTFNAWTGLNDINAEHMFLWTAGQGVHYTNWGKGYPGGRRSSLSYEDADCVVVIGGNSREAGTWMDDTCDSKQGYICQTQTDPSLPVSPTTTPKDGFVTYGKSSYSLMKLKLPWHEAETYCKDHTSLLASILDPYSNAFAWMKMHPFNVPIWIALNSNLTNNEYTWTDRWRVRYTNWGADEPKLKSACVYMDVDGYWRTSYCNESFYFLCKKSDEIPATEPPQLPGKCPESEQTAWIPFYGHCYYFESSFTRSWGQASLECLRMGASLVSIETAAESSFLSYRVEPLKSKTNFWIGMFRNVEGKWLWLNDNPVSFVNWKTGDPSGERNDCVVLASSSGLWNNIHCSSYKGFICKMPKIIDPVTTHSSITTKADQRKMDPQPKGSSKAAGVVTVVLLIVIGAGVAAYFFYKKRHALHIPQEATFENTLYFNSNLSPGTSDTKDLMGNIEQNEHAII

In turn, SapC-DOPS-GCase nanovesicles gave a GCase uptake (net GCase activity) blocked by mannan in J774E macrophages or Gba1-/- neurons of 20%.
